Source: patent US9814672B2, “Echogenic vehicle for clinical delivery of plasminogen activator and other fibrin-binding therapeutics to thrombi” (priority 2007, dated 2017)
Like-named read-outs stand apart in the source and are kept apart here. Each block holds one substance with its values, some of them ahead of it.

Biological target: T1, fibrin (Homo sapiens, UniProt P02671+P02675+P02679)
T1 construct: purchased Calbiochem (EMD Biosciences, Inc., La Jolla, Calif.)
T1 sequence (P02671 36-629 limits assumed): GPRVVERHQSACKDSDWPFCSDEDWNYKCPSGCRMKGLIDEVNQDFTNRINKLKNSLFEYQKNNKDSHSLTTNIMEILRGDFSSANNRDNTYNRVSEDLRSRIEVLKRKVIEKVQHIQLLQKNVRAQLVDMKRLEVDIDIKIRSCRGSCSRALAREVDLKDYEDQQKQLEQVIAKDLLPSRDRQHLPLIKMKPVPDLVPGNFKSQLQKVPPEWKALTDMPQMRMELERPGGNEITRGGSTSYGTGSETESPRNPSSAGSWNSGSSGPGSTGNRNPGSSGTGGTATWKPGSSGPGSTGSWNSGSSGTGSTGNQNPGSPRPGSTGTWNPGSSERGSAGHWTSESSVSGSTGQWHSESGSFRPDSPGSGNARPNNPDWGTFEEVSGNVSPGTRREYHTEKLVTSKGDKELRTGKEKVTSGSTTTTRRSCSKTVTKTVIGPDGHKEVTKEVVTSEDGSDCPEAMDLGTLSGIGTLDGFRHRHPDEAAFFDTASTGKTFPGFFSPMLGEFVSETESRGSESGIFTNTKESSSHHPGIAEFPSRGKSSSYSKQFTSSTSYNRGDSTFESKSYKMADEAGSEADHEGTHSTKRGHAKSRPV
T1 sequence (P02675 45-491 limits assumed): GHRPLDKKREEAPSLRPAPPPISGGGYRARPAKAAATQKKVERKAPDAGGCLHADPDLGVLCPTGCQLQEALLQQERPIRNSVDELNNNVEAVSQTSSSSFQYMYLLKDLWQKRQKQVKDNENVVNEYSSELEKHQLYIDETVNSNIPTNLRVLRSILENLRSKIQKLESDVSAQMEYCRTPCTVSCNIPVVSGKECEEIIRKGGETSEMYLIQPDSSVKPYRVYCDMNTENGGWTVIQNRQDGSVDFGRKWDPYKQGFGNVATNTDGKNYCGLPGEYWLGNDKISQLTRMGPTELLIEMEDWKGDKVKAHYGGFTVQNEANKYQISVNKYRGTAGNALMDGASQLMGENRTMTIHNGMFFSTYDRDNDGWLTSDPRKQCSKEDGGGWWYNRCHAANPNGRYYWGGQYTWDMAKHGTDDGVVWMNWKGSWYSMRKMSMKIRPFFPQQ
T1 sequence (P02679 27-437 isoform P02679-2 limits assumed): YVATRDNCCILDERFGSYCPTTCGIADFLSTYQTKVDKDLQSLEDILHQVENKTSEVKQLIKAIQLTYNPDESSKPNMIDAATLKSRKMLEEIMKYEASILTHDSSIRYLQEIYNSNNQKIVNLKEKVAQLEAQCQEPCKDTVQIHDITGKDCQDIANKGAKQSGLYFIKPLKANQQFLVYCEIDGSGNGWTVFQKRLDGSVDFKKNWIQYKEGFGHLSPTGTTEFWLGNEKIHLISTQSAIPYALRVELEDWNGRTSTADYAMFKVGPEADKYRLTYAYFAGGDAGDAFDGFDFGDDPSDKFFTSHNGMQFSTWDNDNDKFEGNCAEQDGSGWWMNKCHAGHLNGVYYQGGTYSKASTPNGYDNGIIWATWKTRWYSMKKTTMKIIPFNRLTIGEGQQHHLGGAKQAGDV
Test: Two-stage fibrin pad ELISA, Scatchard and van't Hoff analysis
Format: binding
Conditions: for ΔH°: van't Hoff plot
Procedure: Added 100 μl 0.2% BSA/PBS to each well and incubated at 37° C. for 1 hour. All subsequent incubations were also at 37° C. Aspirated the wells and washed the plate 3× with PBS-T. Added Activase dilutions (10, 5, 2.5, 1.25, and 0.625 μg/ml PBS-T) to replicate wells ([…]). Incubated for 2 hours. Removed the contents of each well and pooled all samples within each dilution. Stored pooled samples at 4° C. For tPA-ELIP dilutions (in PBS), the third wash before adding the samples was with PBS. Stored the pooled tPA-ELIP samples in polypropylene tubes.
Added monoclonal anti-tPA capture antibody (Ab) (5 μg/ml coating buffer; […]) to rows B, C, E and G of a fresh microplate. Incubated in a humidified chamber at 4° C. overnight. All subsequent incubations were in humidified chambers at 37° C. at volumes of 50 μl/well, followed by aspiration of wells and 3× washes with PBS-T. Blocked all rows with conjugate buffer for 1 hour. Added tPA standards (50, 25, 12.5, 6.25 and 3.13 ng/ml) and pooled sample dilutions (in PBS-T) in duplicate to sample (B, C, E, G) and background (A, D, F, H) wells. Incubated for 2 hours. Added secondary detection Ab (10 μg sheep anti-tPA/ml 0.1% BSA in PBS-T) to all wells and incubated 1 hour, followed by a conjugate incubation (3,000× diluted with conjugate buffer; 1 hour). Added 50 μl of substrate buffer+500 of substrate (1 tablet/5 ml substrate buffer) to each well. Incubated at 37° for 15 minutes. Immediately quenched with 5 μl of 1M sodium hydroxide/well. Read the plate at 405 nm. Determined net absorbance (A405) by subtracting background OD from sample OD (e.g., B4-A4 or E7-F7).
Calculated the undiluted tPA concentrations of each pooled sample from the standard curve. These represented the free fractions ([F]) of the sample dilutions after equilibrium incubation with fibrin. Obtained the bound concentrations ([B]) by subtracting the free values from the total tPA concentration of the starting dilutions. Prepared Scatchard plots by plotting [B] (x-axis) vs. B/F (y-axis). The slope=−Kassoc and the y-intercept=Kassoc[n], where [n] was the concentration of exposed tPA binding sites on the fibrin pads.
Dilutions of untreated, sham-treated (control) and PPACK-treated (tPA(P)) tPA, as well as tPA(P) conjugated to ELIP (tPA(P)-ELIP), were incubated on replicate fibrin pads, prepared in microplate wells according to a modification of the method of Edgell et al. (1996). Human thrombin was added to a solution of 0.5 mg/ml of human fibrinogen in 0.02M phosphate-buffered saline, pH 7.4 (PBS), to a final concentration of 0.125 IU thrombin/ml; 100 μl of this solution was immediately added to each well and incubated at 37° C. for 45 minutes, followed by overnight drying of the plate at 45° C. After incubation with 100 μl/well of 0.2% BSA in PBS for 1 hour, samples (100 μl/well) were incubated for 2 hours at 37° C. For thermodynamic analyses, this incubation was performed at three temperatures (5, 24 and 37° C.). In order to determine the concentration of free tPA remaining in solution after incubation of tPA with fibrin, from which the concentration of bound tPA could be calculated for Scatchard analysis, the contents of duplicate wells were recovered, pooled and subsequently assayed for immunoreactive tPA in a standard quantitative sandwich ELISA.
Briefly, Nunc MaxiSorp microtiter plates were coated with 5 μg/ml of a monoclonal anti-tPA capture antibody (Ab) in 0.05M sodium bicarbonate, pH 9.6, overnight at 4° C. All incubation volumes were 50 μl/well. One-half of wells were left uncoated for determination of nonspecific binding. After aspirating well contents, all wells were blocked with conjugate buffer (1% BSA in 0.05M Tris buffer, pH 8.0, with 0.02% sodium azide) for 1 hour. From this point, all incubations were at 37° C. Each incubation was followed by aspiration of well contents and washes (3×) with PBS-T (PBS with 0.05% Tween 20). […]

- ΔS° (High affinity): −33.8 cal/mole°
- Kassoc (High affinity, 278 K): 4.67e+09 M⁻¹
- ΔG° (High affinity, 278 K): -12.3 kcal/mol
- Kassoc (High affinity, 297 K): 5.04e+08 M⁻¹
- ΔG° (High affinity, 297 K): -11.8 kcal/mol
- Kassoc (High affinity, 310 K): 7.65e+07 M⁻¹
- ΔG° (High affinity, 310 K): -11.2 kcal/mol
- ΔH° (High affinity): -21.7 kcal/mol
- ΔS° (Low affinity): −9.93 cal/mole°
- Kassoc (Low affinity, 278 K): 5.33e+08 M⁻¹
- ΔG° (Low affinity, 278 K): -11.1 kcal/mol
- Kassoc (Low affinity, 297 K): 1.2e+08 M⁻¹
- ΔG° (Low affinity, 297 K): -11.0 kcal/mol
- Kassoc (Low affinity, 310 K): 3.91e+07 M⁻¹
- ΔG° (Low affinity, 310 K): -10.8 kcal/mol
- ΔH° (Low affinity): -13.9 kcal/mol
- Kd (S.E., n=3, read-out: High-Affinity KD @ 37° C.): 10.4 ± 1.4 nM
- Kd (abstract of Example 15, read-out: fibrin-binding KD, higher affinity, after PPACK inactivation): ~2 nM
- Kd (abstract of Example 15, read-out: fibrin-binding KD, lower affinity, after PPACK inactivation): 33 nM
Substance: tPA(P): Human recombinant tPA (Activase®) irreversibly inhibited with D-phe-L-pro-L-arg-chloromethyl ketone (PPACK)

- other fibrin-binding affinity in the presence of 50 mM EACA (50 mM EACA): non-measurable level
- Kd (50 mM EACA, read-out: remaining fibrin-binding affinity in the presence of 50 mM EACA): 32.9 nM
- Kd (37° C., SE, n=3, read-out: High-affinity interaction dissociation constant (KD)): 5.81 ± 4.04 nM
- Kd (37° C., read-out: Low-affinity interaction KD): 30.4 ± 14.7 nM
- Kassoc 1 (Example 12, 37° C.): 3.13e+08 M⁻¹
- Kassoc 2 (Example 12, 37° C.): 3.53e+07 M⁻¹
- Kd (Example 12, 37° C., PBS-T, read-out: higher affinity on Scatchard plot): 3.19 nM
- Kd (Example 12, 37° C., PBS-T, read-out: lower affinity on Scatchard plot): 28.3 nM
- High affinity (Scatchard plot) (representative plot, PBS-T, 37° C., r=0.883): 2e+09 M⁻¹
- low affinity (Scatchard plot) (representative plot, PBS-T, 37° C., r=0.904): 1.95e+08 M⁻¹
Substance: tPA: Recombinant tissue-plasminogen activator (Activase®, Genentech Inc.), used as the thrombolytic agent [reference compound]
